Results published in the Immune Epitope Database (IEDB).
pKd: −log10 of the molar value.

What was measured:
[1] = target: HLA-B*40:01; experiment: IEDB peptide-MHC binding, purified MHC/competitive/radioactivity; filed as Kd, often an IC50 or EC50 that approximates it; ≥ and ≤ were set here for values at or beyond the usual limits of such assays
[2] = target: HLA-B*44:02; experiment: as above
[3] = target: HLA-B*44:03; experiment: as above
[4] = target: HLA-A*01:01; experiment: as above
[5] = target: HLA-A*23:01; experiment: as above
[6] = target: HLA-A*24:02; experiment: as above
[7] = target: HLA-A*26:01; experiment: as above
[8] = target: HLA-A*29:02; experiment: as above
[9] = target: HLA-A*30:02; experiment: as above
[10] = target: HLA-B*08:01; experiment: as above
[11] = target: HLA-A*03:01; experiment: as above; settings: source organism: Vaccinia virus WR
[12] = target: HLA-A*11:01; experiment: as above; settings: source organism: Vaccinia virus WR
[13] = target: HLA-A*31:01; experiment: as above; settings: source organism: Vaccinia virus WR
[14] = target: HLA-A*33:01; experiment: as above; settings: source organism: Vaccinia virus WR
[15] = target: HLA-A*68:01; experiment: as above; settings: source organism: Vaccinia virus WR
[16] = target: HLA-B*40:01; experiment: IEDB peptide-MHC binding, purified MHC/direct/fluorescence; filed as Kd, often an IC50 or EC50 that approximates it; ≥ and ≤ were set here for values at or beyond the usual limits of such assays
[17] = target: HLA-A*03:01; experiment: as above
[18] = target: HLA-A*31:01; experiment: as above
[19] = target: HLA-B*57:01; experiment: as above; settings: source organism: Bacillus anthracis str. A0488
[20] = target: HLA-B*58:01; experiment: as above; settings: source organism: Bacillus anthracis str. A0488
[21] = target: HLA-A*69:01; experiment: as above; settings: source organism: Haemophilus influenzae
[22] = target: HLA-A*02:03; experiment: IEDB peptide-MHC binding, purified MHC/competitive/radioactivity; filed as Kd, often an IC50 or EC50 that approximates it; ≥ and ≤ were set here for values at or beyond the usual limits of such assays; settings: source organism: Dengue virus 4 Philippines/H241/1956
[23] = target: HLA-B*53:01; experiment: as above; settings: source organism: Dengue virus 3 Martinique/1243/1999
[24] = source organism: Dengue virus 3 Martinique/1243/1999
[25] = source organism: Mammarenavirus lassaense
[26] = source organism: Vaccinia virus WR
[27] = source organism: Mammarenavirus tacaribeense
[28] = source organism: Mammarenavirus guanaritoense
[29] = source organism: Mammarenavirus juninense
[30] = source organism: Dengue virus 3 Singapore/8120/1995
[31] = source organism: SARS coronavirus Tor2
[32] = source organism: Vaccinia virus Copenhagen
[33] = source organism: Dengue virus 4 Philippines/H241/1956
[34] = source organism: Dengue virus 2 Jamaica/1409/1983
[35] = source organism: Plum pox virus
[36] = source organism: Mammarenavirus machupoense
[37] = source organism: Dengue virus 1 Brazil/97-11/1997
[38] = source organism: Mammarenavirus brazilense
[39] = source organism: Pseudomonas aeruginosa UCBPP-PA14
[40] = source organism: Dengue virus 2 16681-PDK53
[41] = source organism: Haemophilus influenzae

## AEPDGPTPEL
[1]; [24]
  pKd: 7.97

## AETQNSSFII
[1]; [24]
  pKd: 7.64
[2]; [24]
  pKd: 7.20
[3]; [24]
  pKd: 7.46

## CFISVNDRLV
[4]; [25]
  pKd: 4.74
[5]; [25]
  pKd: 6.45
[6]; [25]
  pKd: 4.94
[7]; [25]
  pKd: ≤ 4.16
[8]; [25]
  pKd: 5.28
[9]; [25]
  pKd: 6.24

## CPRRYLHRL
[10]; [26]
  pKd: 8.58

## CWFADKNLI
[5]; [27]
  pKd: 6.56
[6]; [27]
  pKd: 6.29
[8]; [27]
  pKd: 5.50

## CYSKSLRDLV
[4]; [28]
  pKd: 4.90
[5]; [28]
  pKd: 5.51
[6]; [28]
  pKd: 6.28
[7]; [28]
  pKd: ≤ 4.16
[8]; [28]
  pKd: ≤ 4.37
[9]; [28]
  pKd: ≤ 4.16

## DWVVERVRWL
[5]; [29]
  pKd: ≤ 4.28
[6]; [29]
  pKd: ≤ 4.31
[8]; [29]
  pKd: ≤ 4.15

## EEEMFKKRNL
[1]; [24]
  pKd: ≤ 4.19
[2]; [24]
  pKd: 7.05
[3]; [24]
  pKd: 6.09

## EEHSSTWHY
[2]; [30]
  pKd: 7.75
[3]; [30]
  pKd: 7.39

## EELPETMETL
[1]; [24]
  pKd: 6.72

## ENMLRSMPV
[10]; [26]
  pKd: 9.67

## ESMASLKSLY
[11]
  pKd: 8.12
[12]
  pKd: 6.94
[8]; [26]
  pKd: ≤ 4.15
[13]
  pKd: 5.50
[14]
  pKd: 4.80
[15]
  pKd: 8.33

## EYISDAFSL
[4]; [31]
  pKd: ≤ 4.42
[5]; [31]
  pKd: ≤ 4.19
[6]; [31]
  pKd: ≤ 4.04
[7]; [31]
  pKd: ≤ 4.11
[8]; [31]
  pKd: ≤ 4.05
[9]; [31]
  pKd: ≤ 4.09

## EYKLQQGTF
[4]; [31]
  pKd: ≤ 4.11
[5]; [31]
  pKd: ≤ 4.45
[6]; [31]
  pKd: 4.95
[7]; [31]
  pKd: ≤ 4.11
[8]; [31]
  pKd: ≤ 4.50
[9]; [31]
  pKd: ≤ 4.10

## EYQKTKLNDW
[5]; [24]
  pKd: 4.97
[6]; [24]
  pKd: 4.99

## FGDSEEPVTY
[4]; [32]
  pKd: 6.08
[5]; [32]
  pKd: 5.83
[6]; [32]
  pKd: ≤ 4.15
[7]; [32]
  pKd: ≤ 4.16
[8]; [32]
  pKd: 4.89
[9]; [32]
  pKd: 4.88

## FNAPALQEAY
[4]; [31]
  pKd: 6.55
[5]; [31]
  pKd: ≤ 4.15
[6]; [31]
  pKd: ≤ 4.15
[7]; [31]
  pKd: 6.28
[8]; [31]
  pKd: 7.58
[9]; [31]
  pKd: 6.47

## GEPDARYEI
[16]; source organism: Mycobacterium tuberculosis variant bovis
  pKd: 7.15

## GETAWDFGSV
[1]; [33]
  pKd: 6.41

## GEYRLRGEAR
[1]; [34]
  pKd: 5.72

## GTMHQEIFR
[17]; [35]
  pKd: 7.08
[18]; [35]
  pKd: 7.38

## GWHDWQQVPF
[5]; [24]
  pKd: 6.38
[6]; [24]
  pKd: 6.93

## HCALLDCIMY
[4]; [36]
  pKd: 6.63
[5]; [36]
  pKd: ≤ 4.15
[6]; [36]
  pKd: ≤ 4.15
[7]; [36]
  pKd: ≤ 4.16
[8]; [36]
  pKd: 5.66
[9]; [36]
  pKd: 5.85

## HEEPIPMSTY
[2]; [34]
  pKd: 6.40
[3]; [34]
  pKd: 6.60

## HVQRIETWIL
[10]; [34]
  pKd: 5.76

## IARQYEQEM
[19]
  pKd: 6.29
[20]
  pKd: 4.82

## IIVNNQESNK
[11]
  pKd: 5.95
[12]
  pKd: 5.36
[8]; [26]
  pKd: ≤ 4.17
[13]
  pKd: ≤ 4.52
[14]
  pKd: ≤ 4.44
[15]
  pKd: 5.49

## ILNRRRRTA
[10]; [34]
  pKd: 6.83

## IMDLEKRHVL
[10]; [34]
  pKd: 7.38

## INKRKKTSL
[10]; [24]
  pKd: 7.74

## IRFPRFTRI
[10]; [26]
  pKd: 5.80

## ITQKGIIFIL
[10]; [37]
  pKd: 6.24

## IYRILQRGLL
[10]; [37]
  pKd: 5.59

## KERMVTFKV
[1]; [33]
  pKd: 5.24

## KWKSRLNAL
[10]; [34]
  pKd: 7.18

## LETRAETWM
[1]; [33]
  pKd: 6.58

## LFLAFVVFLL
[4]; [31]
  pKd: 6.27
[5]; [31]
  pKd: 6.07
[6]; [31]
  pKd: 4.93
[7]; [31]
  pKd: 6.60
[8]; [31]
  pKd: 6.10
[9]; [31]
  pKd: 5.70

## LFQLIFFLTL
[5]; [38]
  pKd: 5.04
[6]; [38]
  pKd: ≤ 4.27
[8]; [38]
  pKd: 6.17

## LIAIAVASGL
[10]; [33]
  pKd: 4.93

## LKDGPERVIL
[10]; [37]
  pKd: 5.60

## LLRKHTLKI
[10]; [26]
  pKd: 7.68

## LNGRKRSTI
[10]; source organism: Dengue virus 4 Dominica/814669/1981
  pKd: 6.87

## LNGRKRSTM
[10]; [33]
  pKd: 7.00

## MFLARAIVF
[4]; [31]
  pKd: ≤ 4.11
[5]; [31]
  pKd: 4.71
[6]; [31]
  pKd: ≤ 4.11
[7]; [31]
  pKd: ≤ 4.47
[8]; [31]
  pKd: 5.07
[9]; [31]
  pKd: 4.78

## MVTGGIRRR
[17]; [39]
  pKd: ≤ 4.70
[18]; [39]
  pKd: 6.60

## NEAIMAVGM
[2]; [34]
  pKd: 7.07
[3]; [34]
  pKd: 6.65

## NEMVLLQME
[2]; [34]
  pKd: 6.04

## NKAWLVHRQW
[2]; [40]
  pKd: 5.94
[3]; [40]
  pKd: 5.39

## REAVEDSRFW
[2]; [34]
  pKd: 7.10
[3]; [34]
  pKd: 6.90

## RFEAYGWQV
[18]; [41]
  pKd: 6.03
[21]
  pKd: 6.47
[16]; [41]
  pKd: 6.64

## RLSFKELLVY
[4]; [31]
  pKd: 6.62
[5]; [31]
  pKd: 4.83
[6]; [31]
  pKd: 4.80
[7]; [31]
  pKd: 5.00
[8]; [31]
  pKd: 7.06
[9]; [31]
  pKd: 6.65

## SAKTKISVE
[10]; [26]
  pKd: 6.62

## SASKSASVY
[4]; [31]
  pKd: ≤ 4.61
[5]; [31]
  pKd: ≤ 4.11
[6]; [31]
  pKd: ≤ 4.11
[7]; [31]
  pKd: ≤ 4.68
[8]; [31]
  pKd: 5.30
[9]; [31]
  pKd: 6.41

## SELPETLETL
[1]; [34]
  pKd: 8.14

## SENEVKLTIM
[1]; [34]
  pKd: 6.01
[2]; [34]
  pKd: 7.63
[3]; [34]
  pKd: 6.42

## SEVCDHRLM
[1]; [33]
  pKd: 6.52
[2]; [33]
  pKd: 7.59
[3]; [33]
  pKd: 7.12

## SKRMRVDII
[10]; [26]
  pKd: 5.08

## SLEFIRRSL
[10]; [26]
  pKd: 5.91

## SLEKAAEVSW
[2]; [37]
  pKd: 6.76

## SMAMRCVGI
[10]; [37]
  pKd: 8.23

## SMKSVQNNTV
[4]; [28]
  pKd: ≤ 4.15
[5]; [28]
  pKd: ≤ 4.15
[6]; [28]
  pKd: ≤ 4.15
[7]; [28]
  pKd: ≤ 4.16
[8]; [28]
  pKd: ≤ 4.27
[9]; [28]
  pKd: 5.53

## SQILLMRTTW
[2]; [37]
  pKd: 6.44
[3]; [37]
  pKd: 6.49

## SRSTSLSVSL
[10]; [34]
  pKd: 6.25

## TEETFKLSY
[4]; [31]
  pKd: 5.10
[5]; [31]
  pKd: ≤ 4.20
[6]; [31]
  pKd: ≤ 4.52
[7]; [31]
  pKd: 4.82
[8]; [31]
  pKd: 6.85
[9]; [31]
  pKd: 5.44

## VDLHPASAW
[2]; [37]
  pKd: 7.10

## VDSSQGSEY
[4]; [31]
  pKd: 6.05
[5]; [31]
  pKd: ≤ 4.11
[6]; [31]
  pKd: ≤ 4.11
[7]; [31]
  pKd: ≤ 4.61
[8]; [31]
  pKd: 5.98
[9]; [31]
  pKd: 5.70

## VEDYGFGMF
[1]; [33]
  pKd: 6.02

## VGEEFFHQY
[4]; [29]
  pKd: 5.48
[5]; [29]
  pKd: 6.60
[6]; [29]
  pKd: 5.79
[7]; [29]
  pKd: ≤ 4.11
[8]; [29]
  pKd: 5.62
[9]; [29]
  pKd: 8.17

## VGRQEKGKSL
[10]; [34]
  pKd: 5.50

## VIEGPTTCGY
[4]; [31]
  pKd: 6.96
[5]; [31]
  pKd: ≤ 4.42
[6]; [31]
  pKd: 4.77
[7]; [31]
  pKd: 6.04
[8]; [31]
  pKd: 6.82
[9]; [31]
  pKd: 7.58

## VNKFKFGAA
[10]; [26]
  pKd: 6.80

## WIMKIGIGVL
[10]; [30]
  pKd: 6.54

## WLSYKVASA
[22]
  pKd: 7.91
[10]; [33]
  pKd: 8.13

## YENLKYSVIV
[1]; [37]
  pKd: 7.15

## YQPDTGNYIL
[5]; [38]
  pKd: 5.76
[6]; [38]
  pKd: 5.22
[8]; [38]
  pKd: 5.26

## YSIPATLLVW
[5]; [24]
  pKd: 7.15
[23]
  pKd: 7.22
